T1: MED16 (mouse (Mus musculus; endogenous in CH12), UniProt Q6PGF3 1-828)
T1 construct: MED16, Mus musculus, endogenous lower Tail subunit of Mediator; source: endogenous, CH12 mouse B lymphoma nuclear extract; immunopurified as part of Mediator (FLAG M2 agarose, FLAG peptide elution)
T1 sequence (looked up): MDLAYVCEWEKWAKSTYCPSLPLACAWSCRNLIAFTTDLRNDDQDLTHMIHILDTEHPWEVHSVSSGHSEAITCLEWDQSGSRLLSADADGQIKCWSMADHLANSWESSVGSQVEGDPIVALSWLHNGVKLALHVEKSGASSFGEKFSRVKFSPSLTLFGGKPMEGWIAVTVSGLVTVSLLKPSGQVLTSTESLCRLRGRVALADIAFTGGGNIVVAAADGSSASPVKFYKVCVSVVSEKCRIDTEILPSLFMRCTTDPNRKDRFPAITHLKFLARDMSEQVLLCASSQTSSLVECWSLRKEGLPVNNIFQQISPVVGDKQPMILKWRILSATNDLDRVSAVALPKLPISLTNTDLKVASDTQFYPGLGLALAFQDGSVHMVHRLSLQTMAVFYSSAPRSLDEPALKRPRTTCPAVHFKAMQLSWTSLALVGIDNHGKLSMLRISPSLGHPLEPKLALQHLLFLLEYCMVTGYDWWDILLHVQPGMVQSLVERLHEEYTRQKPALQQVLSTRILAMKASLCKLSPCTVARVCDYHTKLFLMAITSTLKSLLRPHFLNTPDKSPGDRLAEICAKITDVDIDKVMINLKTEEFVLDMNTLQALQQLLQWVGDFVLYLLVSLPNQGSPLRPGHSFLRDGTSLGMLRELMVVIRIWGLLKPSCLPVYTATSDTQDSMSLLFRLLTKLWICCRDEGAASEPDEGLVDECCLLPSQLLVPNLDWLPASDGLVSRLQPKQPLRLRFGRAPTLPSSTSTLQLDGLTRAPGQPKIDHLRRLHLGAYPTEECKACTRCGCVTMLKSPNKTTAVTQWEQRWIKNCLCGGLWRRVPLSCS


Target: T1, MED16
Assay: cryo-EM structure; endogenous mouse Mediator immunopurified from CH12 nuclear extract through 3×FLAG-MED19 or 3×FLAG-MED25; eluted in 50 mM HEPES pH 7.9, 100 mM KCl, 5% glycerol, 1 mM EDTA, 0.005% NP-40; map at 4.0 Å overall, focused refinement of the MED1 and knob/hook ends (6-10 Å)
Settings: both partners purified

Binder | binding result
MED15 (natural protein, mouse (Mus musculus; endogenous in CH12), UniProt Q924H2 1-789, looked up, MED15, Mus musculus, endogenous lower Tail subunit of Mediator; only the C-terminal portion (from residue 620) is seen in the map; source: endogenous, CH12 mouse B lymphoma nuclear extract; immunopurified as part of Mediator (FLAG M2 agarose, FLAG peptide elution)) MDVSGQETDWRSAAFRQKLVSQIEDAMRKAGVAHSKSSKDMESHVFLKAKTRDEYLSLVARLIIHFRDIHNKKSQASVSDPMNALQSLTGGPTPGAAGIGMPPRGPGQSLGGMGGLGAMGQPLPLSGQPPPGTSGMAPHGMAVVSTATPQTQLQLQQVALQQQQQQQQQQQFQQQQAALQQQQQQQQQQQQQQQFQAQQNAMQQQFQAVVQQQQLQQQQQQQHLIKLHHQSQQQQIQQQQLQRMAQLQLQQQQQQQQQQALQAQPPMQQPSMQQPQPPPSQALPQQLSQLHHPQHHQPPPQAQQSPIAQNQPPQIPPQSQSQPLVSQAQALPGPMLYAAQQQLKFVRAPMVVQQPQVQPQVQQVQPQVQPQAAVQAAQSAQMVAPGVQMIAEALAQGGMHVRARFPPTSTMSAGPSSSISLGGQPTTQVSQSSLTMLSSPSPGQQVQTPQSMPPPPQPSPQPGSQPNSNVSSGPAPSPSSFLPSPSPQPSQSPVTARTPQNFSVPSPGPLNTPVNPSSVMSPAGSSQAEEQQYLDKLKQLSKYIEPLRRMINKIDKNEDRKKDLSKMKSLLDILTDPSKRCPLKTLQKCEIALEKLKNDMAVPTPPPPPVLPTKQQDLCQPLLDAVLANIRSPVFNHSLYRTFVPAMMAIHGPPIVSPVVCSRKRRFEEDERQSIPNVLQGEVARLDPKFLVNLDPSHCSNNGTVHLICKLDDKDLPSVPPLELSVPADYPAQSPMWIDRQWQYDANPFLQSVHRCMTSRLLQLPDKHSVTALLNTWAQSIHQACLSAA | binds
MED25 (natural protein, mouse (Mus musculus; endogenous in CH12), UniProt Q8VCB2 1-745, looked up, MED25, Mus musculus, endogenous lower Tail subunit of Mediator; only the N-terminal von Willebrand domain (aa 15-216) is seen in the map; The 3×FLAG tag stands on MED25 only in the MED25-FLAG cell line; in the MED19-FLAG line MED25 is untagged; Images from the datasets were combined for the final map; also called MED25-FLAG; source: endogenous, CH12 mouse B lymphoma nuclear extract; …) MVPGSEGPARAGGLVADVVFVIEGTANLGPYFEELRKHYLLPAIEYFNGGPPAETDFGGDYGGTQYSLVVFNTVDCAPESYVQCHAPTSSAYEFVTWLDGIKFMGGGGESCSLIAEGLSTALQLFDDFKKMREQIGQTHRVCLLICNSPPYLLPAVESTTYSGCTTESLVQKIGERGIHFSIVSPRKLPALRLLFEKAAPPALLEPLQQPADVSQDPRHMVLVRGLVLPVGGSSTSGSLQTKQAVPLPPAPASAATLSAAPPQALPPVPPQYQVPGNLSAAQVAAQNAVEAAKSQKAGLGPRFSPINPLQQAAPGVGPPFSQAPAPPLAPVPPGAPKPPPASQPSLVSTVAPGPVLAAPAQPGAPSLAGTVTPGGVNGPSAAQLGGPALGGQQSVSNKLLAWSGVLEWQEKPKPASVDANTKLTRSLPCQVYVNHGENLKTEQWPQKLIMQLIPQQLLTTLGPLFRNSRMVQFHFTNKDLESLKGLYRIMGNGFAGCVHFPHTAPCEVRVLMLLYSSKKKIFMGLIPYDQSGFVNGIRQVITNHKQVQQQKLEQQRGMGAQQAPPVLGPILEEQARPPQNLLQLRAPQPQPQGAVGASAATGQPQPQGATQAPTGAPQGPPGAAPGPPPSGPILRPQNPGANPQLRSLLLNPAPPQTGVPPPQASLHHLQPPGAPTLLPPHQSMGQPQLGPQLLHPPPAQSWPTQLPQRAPLPGQMLLSGGPRGPVPQPGLQPSVMEDDILMDLI | binds

Reference: article PMC7921410, “Structure of mammalian Mediator complex reveals Tail module architecture and interaction with a conserved core” (Nature Communications, 2021)
